Measurements: US20230382992A1

What was measured:
[1] = biological target: mouse TIM3 on cells (mouse) (UniProt Q8VIM0); test: binding to activated mouse T cells (method not described)
[2] = biological target: mouse TIM3 on cells (mouse) (UniProt Q8VIM0); test: binding to activated mouse T cells, compared with TIM3.18 on human TIM-3

mouse TIM3 on cells (mouse), sequence (Q8VIM0 20-281): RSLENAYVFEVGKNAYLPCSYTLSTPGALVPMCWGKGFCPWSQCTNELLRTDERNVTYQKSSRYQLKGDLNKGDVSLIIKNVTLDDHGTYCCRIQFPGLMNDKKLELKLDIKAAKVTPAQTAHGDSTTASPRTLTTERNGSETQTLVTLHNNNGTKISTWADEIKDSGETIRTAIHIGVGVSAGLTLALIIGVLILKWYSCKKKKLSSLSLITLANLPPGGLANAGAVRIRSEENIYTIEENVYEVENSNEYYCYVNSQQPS

EC50 [1]: 1.7 nM
fold weaker EC50 than TIM3.18 on human TIM-3 [2]: 17 fold
Substance: RMT3-23 rat anti-mouse TIM-3 antibody (Bio-X-Cell)
